Assay results published in patent US20070196354A1, “Method of treating diabetes by inhibiting degradation of at least one of crebl1, atf6, and hnf-4 alpha by htra” (priority 2003, published 2007).

Key:
[1] = target: T1, biotinylated CREBL1 (Homo sapiens, UniProt Q99941); experiment: In vitro protease assay using biotinylated CREBL1 (degradation pattern); assay type: biochemical; conditions: 37° C., 4 hours or overnight
T1 construct: made in house; host or cells: cell-free: rabbit reticulocyte lysate (TNT Transcription/Translation System, Promega); the unpurified reaction solution was used
T1 sequence (Q99941 1-703): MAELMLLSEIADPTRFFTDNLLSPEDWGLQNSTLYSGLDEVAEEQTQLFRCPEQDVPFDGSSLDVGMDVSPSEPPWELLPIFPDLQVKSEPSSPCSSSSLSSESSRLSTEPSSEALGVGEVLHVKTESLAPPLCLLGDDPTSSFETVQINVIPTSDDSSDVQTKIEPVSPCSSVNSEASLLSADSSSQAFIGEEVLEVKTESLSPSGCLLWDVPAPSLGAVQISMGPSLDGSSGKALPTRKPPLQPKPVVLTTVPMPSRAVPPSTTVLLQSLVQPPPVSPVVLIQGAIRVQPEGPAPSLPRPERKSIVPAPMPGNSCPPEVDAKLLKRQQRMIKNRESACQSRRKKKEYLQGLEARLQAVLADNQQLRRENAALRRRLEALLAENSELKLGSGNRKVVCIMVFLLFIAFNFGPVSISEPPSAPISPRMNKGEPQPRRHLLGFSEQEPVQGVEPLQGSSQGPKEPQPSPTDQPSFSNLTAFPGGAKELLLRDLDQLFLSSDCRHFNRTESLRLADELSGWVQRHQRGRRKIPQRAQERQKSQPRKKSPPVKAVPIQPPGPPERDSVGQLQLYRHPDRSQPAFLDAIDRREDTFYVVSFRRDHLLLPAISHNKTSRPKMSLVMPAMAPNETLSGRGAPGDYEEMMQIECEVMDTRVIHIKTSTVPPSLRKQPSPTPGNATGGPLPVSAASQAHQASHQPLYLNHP
Procedure: More concretely, first, 1.5 μl of the animal cell expression plasmid for CREBL1 (1 μg/μl), 1 μl of 1 mM methionine, 1 μl of biotinylated lysine tRNA (Promega), and 6.5 μl of nuclease free water were added to 40 μl of in vitro translation reaction solution (TNT® Quick Master Mix) to obtain total volume of 50 μl, and reacted for at 30° C. for 1.5 hours. Following this, 12.5 μl of 50 μl reaction solution was sampled, followed by adding with 2×SDS sample buffer and boiling, to detect the expression of biotinylated CREBL1 by western blotting. The detection was carried out using streptavidin HRP (Promega) and Transcend™ Chemiluminescent substrate (Transcend™ Non-Radioactive Translation detection system; Promega). As a result, biotinylation of CREBL1 was confirmed in sample.
The reaction solution was used as the sample for protease assay. 12.5 μl each of the reaction solution was dispensed to three tubes (Nos. 2 to 4). 25 μl of 50 mM Tris-HCl (pH 7.5), 150 mM NaCl, 0.01% Triton X-100 was added as the control to tube No. 2, 25 μl of 200 μg/m mature HtrA2 solution was added to tube No. 3, and 25 μl of 200 μg/ml mature HtrA2 (S306A) solution was added to tube No. 4, respectively, and mixed. […]

[2] = test system: casein; experiment: Casein zymography and protease assay with casein sodium; assay type: biochemical; conditions: casein zymography and casein sodium protease assay, 37° C., E. coli-expressed His-tagged protein
Procedure: Determination of the activity of mature HtrA2 and mature HtrA2 (S306A) was carried out with casein zymography and with a protease assay with casein sodium. Casein zymography was carried out according to the protocol (Invitrogen). More concretely, mature HtrA2 and mature HtrA2 (S306A) were mixed under non-reductive condition with equivalent volume of 2×SDS sample buffer, left to stand at room temperature for 10 min, followed by separation with 4-16% zymogram (Blue casein) gel (Zymogram Gel, Invitrogen). After completion of electrophoresis, they were renatured with 2.5% Triton X-100, and then subjected to a degradation reaction of casein in the developing buffer at 37= C. for overnight.
Meanwhile, a protease assay using casein sodium as an substrate was carried out in such that mature HtrA2 or mature HtrA2 (S306A) was mixed with casein sodium in a reaction buffer (150 mM NaCl, 50 mM Tris-HCl (pH 7.5)) so as to the concentration of the former might become 200 μg/ml and the concentration of the latter might become 400 μg/ml, and incubated at 37° C. for reactions. A portion of the reaction solution was sampled at three hours and overnight after initiation of the reaction, mixed with equivalent volume of 2×SDS sample buffer followed by boiling, and then subjected to SDS-PAGE. After that, the degradation of casein sodium was detected by Coomassie Brilliant Blue (CBB) staining.
The enzyme activity of the various types of HtrA2 each of which was expressed in a cultured cell was determined by the protease assay using casein sodium as a substrate (see Example 2).

B1: mature HtrA2: SEQ ID NO: 4; mature protein generated from HtrA2 precursor by cleavage of N-terminal 133 residues, has protease activity (protein, listed as Homo sapiens)
chain: MAVPSPPPASPRSQYNFIADVVEKTAPAVVYIEILDRHPFLGREVPISNGSGFVVAADGLIVTNAHVVADRRRVRVRLLSGDTYEAVVTAVDPVADIATLRIQTKEPLPTLPLGRSADVRQGEFVVAMGSPFALQNTITSGIVSSAQRPARDLGLPQTNVEYIQTDAAIDFGNSGGPLVNLDGEVIGVNTMKVTAGISFAIPSDRLREFLHRGEKKNSSSGISGSQRRYIGVMMLTLSPSILAELQLREPSFPDVQHGVLIHKVILGSPAHRAGLRPGDVILAIGEQMVQNAEDVYEAVRTQSQLAVQIRRGRETLTLYVTPEVTE
modifications: mature HtrA2
- degradation of N-terminal tagged-CREBL1, detecting the Tag ([1]; anti-Tag antibody): The band of N-terminal tagged-CREBL1 was reduced significantly
- degradation of biotinylated CREBL1, detecting the biotin ([1]; streptavidin HRP): The band of biotinylated CREBL1 was reduced significantly
- degradation of casein [2]: degradation of casein by mature HtrA2 was observed
